The record followed here is IntAct's records for PubMed 31515488.

First the molecules themselves.
B1: Hematopoietic lineage cell-specific protein (Homo sapiens), P14317 (parent)
chain: MWKSVVGHDVSVSVETQGDDWDTDPDFVNDISEKEQRWGAKTIEGSGRTEHINIHQLRNKVSEEHDVLRKKEMESGPKASHGYGGRFGVERDRMDKSAVGHEYVAEVEKHSSQTDAAKGFGGKYGVERDRADKSAVGFDYKGEVEKHTSQKDYSRGFGGRYGVEKDKWDKAALGYDYKGETEKHESQRDYAKGFGGQYGIQKDRVDKSAVGFNEMEAPTTAYKKTTPIEAASSGTRGLKAKFESMAEEKRKREEEEKAQQVARRQQERKAVTKRSPEAPQPVIAMEEPAVPAPLPKKISSEAWPPVGTPPSSESEPVRTSREHPVPLLPIRQTLPEDNEEPPALPPRTLEGLQVEEEPVYEAEPEPEPEPEPEPENDYEDVEEMDRHEQEDEPEGDYEEVLEPEDSSFSSALAGSSGCPAGAGAGAVALGISAVAVYDYQGEGSDELSFDPDDVITDIEMVDEGWWRGRCHGHFGLFPANYVKLLE
partner: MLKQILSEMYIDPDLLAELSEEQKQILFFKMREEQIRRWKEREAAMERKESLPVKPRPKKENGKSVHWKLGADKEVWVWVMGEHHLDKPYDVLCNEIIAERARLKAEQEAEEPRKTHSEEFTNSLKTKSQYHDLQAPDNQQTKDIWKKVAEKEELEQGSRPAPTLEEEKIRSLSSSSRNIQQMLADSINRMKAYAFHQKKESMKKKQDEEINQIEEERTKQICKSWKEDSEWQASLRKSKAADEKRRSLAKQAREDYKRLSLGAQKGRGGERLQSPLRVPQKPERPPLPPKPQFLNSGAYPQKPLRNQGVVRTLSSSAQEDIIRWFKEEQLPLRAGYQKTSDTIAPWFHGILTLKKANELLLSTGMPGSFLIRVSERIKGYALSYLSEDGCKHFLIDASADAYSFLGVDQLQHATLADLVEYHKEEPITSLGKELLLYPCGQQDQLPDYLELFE
B2: Myomegalin (Homo sapiens), Q5VU43-2 (parent)
chain: MKEICRICARELCGNQRRWIFHTASKLNLQVLLSHVLGKDVPRDGKAEFACSKCAFMLDRIYRFDTVIARIEALSIERLQKLLLEKDRLKFCIASMYRKNNDDSGAEIKAGNGTVDMSVLPDARYSALLQEDFAYSGFECWVENEDQIQEPHSCHGSEGPGNRPRRCRGCAALRVADSDYEAICKVPRKVARSISCGPSSRWSTSICTEEPALSEVGPPDLASTKVPPDGESMEEETPGSSVESLDASVQASPPQQKDEETERSAKELGKCDCCSDDQAPQHGCNHKLELALSMIKGLDYKPIQSPRGSRLPIPVKSSLPGAKPGPSMTDGVSSGFLNRSLKPLYKTPVSYPLELSDLQELWDDLCEDYLPLRVQPMTEELLKQQKLNSHETTITQQSVSDSHLAELQEKIQQTEATNKILQEKLNEMSYELKCAQESSQKQDGTIQNLKETLKSRERETEELYQVIEGQNDTMAKLREMLHQSQLGQLHSSEGTSPAQQQVALLDLQSALFCSQLEIQKLQRVVRQKERQLADAKQCVQFVEAAAHESEQQKEASWKHNQELRKALQQLQEELQNKSQQLRAWEAEKYNEIRTQEQNIQHLNHSLSHKEQLLQEFRELLQYRDNSDKTLEANEMLLEKLRQRIHDKAVALERAIDEKFSALEEKEKELRQLRLAVRERDHDLERLRDVLSSNEATMQSMESLLRAKGLEVEQLSTTCQNLQWLKEEMETKFSRWQKEQESIIQQLQTSLHDRNKEVEDLSATLLCKLGPGQSEIAEELCQRLQRKERMLQDLLSDRNKQVLEHEMEIQGLLQSVSTREQESQAAAEKLVQALMERNSELQALRQYLGGRDSLMSQAPISNQQAEVTPTGRLGKQTDQGSMQIPSRDDSTSLTAKEDVSIPRSTLGDLDTVAGLEKELSNAKEELELMAKKERESQMELSALQSMMAVQEEELQVQAADMESLTRNIQIKEDLIKDLQMQLVDPEDIPAMERLTQEVLLLREKVASVESQGQEISGNRRQQLLLMLEGLVDERSRLNEALQAERQLYSSLVKFHAHPESSERDRTLQVELEGAQVLRSRLEEVLGRSLERLNRLETLAAIGGAAAGDDTEDTSTEFTDSIEEEAAHHSHQQL
partner: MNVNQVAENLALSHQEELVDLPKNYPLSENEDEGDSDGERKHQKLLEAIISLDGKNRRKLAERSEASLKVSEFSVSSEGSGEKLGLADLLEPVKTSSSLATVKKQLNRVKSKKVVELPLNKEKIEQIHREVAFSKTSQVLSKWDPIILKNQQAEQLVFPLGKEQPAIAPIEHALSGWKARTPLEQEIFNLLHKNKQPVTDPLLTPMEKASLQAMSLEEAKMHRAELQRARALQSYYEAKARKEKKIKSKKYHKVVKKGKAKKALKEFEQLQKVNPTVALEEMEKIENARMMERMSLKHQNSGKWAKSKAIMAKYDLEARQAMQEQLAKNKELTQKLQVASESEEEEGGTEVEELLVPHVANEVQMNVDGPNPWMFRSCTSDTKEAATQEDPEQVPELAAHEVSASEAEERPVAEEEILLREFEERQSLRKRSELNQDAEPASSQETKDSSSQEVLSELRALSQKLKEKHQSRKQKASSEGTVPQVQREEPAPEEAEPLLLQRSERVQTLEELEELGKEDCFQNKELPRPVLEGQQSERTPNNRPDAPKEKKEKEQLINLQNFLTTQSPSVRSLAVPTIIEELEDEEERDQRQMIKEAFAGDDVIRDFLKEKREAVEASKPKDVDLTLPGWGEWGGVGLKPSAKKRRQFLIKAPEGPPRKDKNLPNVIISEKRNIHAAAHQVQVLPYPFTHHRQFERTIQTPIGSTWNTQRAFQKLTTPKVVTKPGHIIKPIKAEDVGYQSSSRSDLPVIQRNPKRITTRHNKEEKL
B3: Nucleoside diphosphate kinase homolog 5 (Homo sapiens), P56597 (parent)
chain: MEISMPPPQIYVEKTLAIIKPDIVDKEEEIQDIILRSGFTIVQRRKLRLSPEQCSNFYVEKYGKMFFPNLTAYMSSGPLVAMILARHKAISYWLELLGPNNSLVAKETHPDSLRAIYGTDDLRNALHGSNDFAAAEREIRFMFPEVIVEPIPIGQAAKDYLNLHIMPTLLEGLTELCKQKPADPLIWLADWLLKNNPNKPKLCHHPIVEEPY
partner: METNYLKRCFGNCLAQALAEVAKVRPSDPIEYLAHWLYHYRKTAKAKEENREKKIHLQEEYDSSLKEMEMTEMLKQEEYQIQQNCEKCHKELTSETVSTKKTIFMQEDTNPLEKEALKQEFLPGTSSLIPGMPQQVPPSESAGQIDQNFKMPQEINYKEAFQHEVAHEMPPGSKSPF
B4: Keratin, type II cuticular Hb6 (Homo sapiens), O43790 (parent)
chain: MTCGSYCGGRAFSCISACGPRPGRCCITAAPYRGISCYRGLTGGFGSHSVCGGFRAGSCGRSFGYRSGGVCGPSPPCITTVSVNESLLTPLNLEIDPNAQCVKQEEKEQIKSLNSRFAAFIDKVRFLEQQNKLLETKLQFYQNRECCQSNLEPLFEGYIETLRREAECVEADSGRLASELNHVQEVLEGYKKKYEEEVSLRATAENEFVALKKDVDCAYLRKSDLEANVEALIQEIDFLRRLYEEEIRVLQSHISDTSVVVKLDNSRDLNMDCIIAEIKAQYDDIVTRSRAEAESWYRSKCEEMKATVIRHGETLRRTKEEINELNRMIQRLTAEVENAKCQNSKLEAAVAQSEQQGEAALSDARCKLAELEGALQKAKQDMACLIREYQEVMNSKLGLDIEIATYRRLLEGEEQRLCEGVGSVNVCVSSSRGGVVCGDLCASTTAPVVSTRVSSVPSNSNVVVGTTNACAPSARVGVCGGSCKRC
B5: Protein N-lysine methyltransferase METTL21A (Homo sapiens), Q8WXB1 (parent)
chain: MALVPYEETTEFGLQKFHKPLATFSFANHTIQIRQDWRHLGVAAVVWDAAIVLSTYLEMGAVELRGRSAVELGAGTGLVGIVAALLGAHVTITDRKVALEFLKSNVQANLPPHIQTKTVVKELTWGQNLGSFSPGEFDLILGADIIYLEETFTDLLQTLEHLCSNHSVILLACRIRYERDNNFLAMLERQFTVRKVHYDPEKDVHIYEAQKRNQKEDL
B6: H/ACA ribonucleoprotein complex subunit 3 (Homo sapiens), Q9NPE3 (parent)
chain: MFLQYYLNEQGDRVYTLKKFDPMGQQTCSAHPARFSPDDKYSRHRITIKKRFKVLMTQQPRPVL
partner: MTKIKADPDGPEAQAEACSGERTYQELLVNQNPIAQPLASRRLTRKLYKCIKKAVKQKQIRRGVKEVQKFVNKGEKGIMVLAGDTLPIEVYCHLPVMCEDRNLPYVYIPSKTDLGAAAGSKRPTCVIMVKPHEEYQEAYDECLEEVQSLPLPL

Variants of B1 are the subject of one assay. The conditions noted are these: with sh24a_human SH2D4A.
Take E361K: the “effect of a mutation on the interaction” value is reported as “with no effect”.

W21C: the “effect of a mutation on the interaction” value is “with no effect”. The same measure, in the same setting: next, P218L: “with no effect”.

In a further assay the parent is B2. The conditions noted are these: with ut14c_human UTP14C.
N28S: the “effect of a mutation on the interaction” value is reported as “with no effect”.

The next assay covers variants of B3. The conditions noted are these: with dydc2_human DYDC2, Q96IM9.
On to I165M, for which the “effect of a mutation on the interaction” value is on record as “with no effect”. On the same count and under the same terms, next, N198D: “with no effect”; L103F: “with no effect”; S50N: “with no effect”.

Variants of B4 are the subject of another assay. The note with it: with KRT15, P19012.
Chain of KRT15, P19012 (P19012 whole entry): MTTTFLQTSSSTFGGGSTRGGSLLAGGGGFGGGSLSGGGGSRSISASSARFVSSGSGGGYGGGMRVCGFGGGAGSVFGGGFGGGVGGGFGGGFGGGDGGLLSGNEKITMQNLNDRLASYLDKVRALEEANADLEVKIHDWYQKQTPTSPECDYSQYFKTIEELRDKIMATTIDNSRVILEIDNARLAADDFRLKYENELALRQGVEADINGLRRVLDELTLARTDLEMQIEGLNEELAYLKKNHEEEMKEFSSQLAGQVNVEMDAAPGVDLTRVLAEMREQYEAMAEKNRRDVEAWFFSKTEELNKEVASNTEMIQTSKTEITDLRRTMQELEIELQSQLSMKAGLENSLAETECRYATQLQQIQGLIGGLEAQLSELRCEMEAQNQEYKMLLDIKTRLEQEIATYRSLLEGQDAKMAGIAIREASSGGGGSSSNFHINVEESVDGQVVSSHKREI
In the case of R408H, the “effect of a mutation on the interaction” value was “with no effect”.

On to R327C, for which the “effect of a mutation on the interaction” value was “with no effect”.

Another assay covers variants of B5. The conditions noted are these: with FAM200C.
For A209P, the “effect of a mutation on the interaction” value was “disrupting interaction strength”.

Variants of B6 are the subject of another assay. The conditions noted are these: with nhp2_human NHP2, Q9NX24.
For D12H, the “effect of a mutation on the interaction” value is on record as “with no effect”.
